Source: patent WO2020171171A1 (dated 2020)

Molecular target: HLA-DR antigen expressed on human cells (L428, KM-H2, B cells of PBMC, other cancer cell lines, tumour tissue) (human)
Assay: cell-based or functional assay

B1: BP1206 chimeric antibody (human Fc chimeric recombinant antibody designed based on the antibody LN-3) (antibody, human IgG1, kappa, L234A L235A, V domains shown)
VH: QVHLKQSGPGLVQPSQSLSITCTVSGFSLTRFGVHWIRQSPGKSLEWLGVTWSGGTTVYNGAFISRLSITKDISKSQVFFKMNSLQVDDTGIYYCARAYYAMDYWGQGTSVTVSS
VL: DVQMTQSPSYLAASPGETITIHCRASESIGKYLAWYQKKPGRSNRLLIYSGSTLQSGIPSRFSGSGSGTDFTLTVSSLEPEDFAMYYCQHHNDYPWTFGGGTKVEIKR
  decrease in abundance of B cells (CD19 positive cells) among live PBMC, relative to isotype control (1 μg/ml antibody, 2 h, flow cytometry): ~60%
